B1: tissue-type plasminogen activator (tPA) (enzyme, human, UniProt P00750 36-562, looked up)
chain: SYQVICRDEKTQMIYQQHQSWLRPVLRSNRVEYCWCNSGRAQCHSVPVKSCSEPRCFNGGTCQQALYFSDFVCQCPEGFAGKCCEIDTRATCYEDQGISYRGTWSTAESGAECTNWNSSALAQKPYSGRRPDAIRLGLGNHNYCRNPDRDSKPWCYVFKAGKYSSEFCSTPACSEGNSDCYFGNGSAYRGTHSLTESGASCLPWNSMILIGKVYTAQNPSAQALGLGKHNYCRNPDGDAKPWCHVLKNRRLTWEYCDVPSCSTCGLRQYSQPQFRIKGGLFADIASHPWQAAIFAKHRRSPGERFLCGGILISSCWILSAAHCFQERFPPHHLTVILGRTYRVVPGEEEQKFEVEKYIVHKEFDDDTYDNDIALLQLKSDSSRCAQESSVVRTVCLPPADLQLPDWTECELSGYGKHEALSPFYSERLKEAHVRLYPSSRCTSQHLLNRTVTDNMLCAGDTRSGGPQANLHDACQGDSGGPLVCLNDGRMTLVGIISWGLGCGQKDVPGVYTKVTNYLDWIRDNMRP
notes: Full-length recombinant tPA; also called Actilyse; Alteplase
B2: endostatin (EntreMed) (other, UniProt P39060 1572-1754, looked up)
chain: HSHRDFQPVLHLVALNSPLSGGMRGIRGADFQCFQQARAVGLAGTFRAFLSSRLQDLYSIVRRADRAAVPIVNLKDELLFPSWEALFSGSEGPLKPGARIFSFDGKDVLRHPTWPQKSVWHGSDPNGRRLTESYCETWRTEAPSATGQASSLLGGRLLGQSAASCHHAYIVLCIENSFMTASK
notes: also called protein therapeutic endostatin
B3: abciximab (ReoPro) (Fab, V domains shown)
VH: EVQLQQSGTVLARPGASVKMSCEASGYTFTNYWMHWVKQRPGQGLEWIGAIYPGNSDTSYIQKFKGKAKLTAVTSTTSVYMELSSLTNEDSAVYYCTLYDGYYVFAYWGQGTLVTVSA
VL: EIVLTQSPVTLSVTPGDSVSLSCRASRDISNNLHWFQQTSHESPRLLIKYASQSMSGIPSRFSGSGSGTDFTLSINSVETEDFGMYFCQQTNSWPYTFGGGTKLEIK
B4: recombinant human β2-glycoprotein I (other, UniProt P02749 20-345, looked up)
chain: GRTCPKPDDLPFSTVVPLKTFYEPGEEITYSCKPGYVSRGGMRKFICPLTGLWPINTLKCTPRVCPFAGILENGAVRYTTFEYPNTISFSCNTGFYLNGADSAKCTEEGKWSPELPVCAPIICPPPSIPTFATLRVYKPSAGNNSLYRDTAVFECLPQHAMFGNDTITCTTHGNWTKLPECREVKCPFPSRPDNGFVNYPAKPTLYYKDKATFGCHDGYSLDGPEEIECTKLGNWSAMPSCKASCKVPVKKATVVYQGERVKIQEKFKNGMLHGDKVSFFCKNKEKKCSYTEDAQCIDGTIEVPKCFKEHSSLAFWKTDASDVKPC
notes: also called recombinant β2GPI; rec. β2GPI

The target in assay [1] is T1, recombinant human Zn2+-chelated insulin (Monotard) (human, UniProt P01308 90-110; P01308 25-54).
T1 construct: mature; Zinc suspension; also called zinc-insulin; zinc-chelated insulin
In words: ELISA, therapeutic coated, tPA concentration series, one-site binding fit. The method, then:
(§1) Nunc Immobilizer plates (Nalge Nunc, #436013, Rochester, N.Y., USA) were coated with 50 μL containing 5 μg/mL of sample protein (unless indicated otherwise) in 100 mM NaHCO₃, pH 9.6, 0.05% m/v NaN₃ for 1 hour at room temperature. Plates were washed twice with Tris buffered saline pH 7.2 containing 0.1% Tween20 (TBST) and blocked with PBS containing 1% Tween20 for 1 hour at room temperature. […] Plates were washed five times with TBST and incubated with peroxidase labeled anti-mouse immunoglobulins (RAMPO; DAKOCytomation, Glostrup, Denmark) diluted 1:3000 in PBST for 30 minutes at room temperature. Plates were washed five times with PBS 0.1% Tween20, and stained with 100 μL/well of tetramethyl-benzidine (TMB) substrate (Biosource Europe, Nivelles, Belgium). The reaction was terminated with 50 μL/well of 2 M H₂SO₄ and substrate conversion was read at 450 nm on a Spectramax340 microplate reader. Curves were fitted with a one-site binding model (GraphPad Prism version 4.02 for Windows, Graphpad Software, CA, USA) from which Kd and Bmax were determined.
For orientation: An ELISA detects its analyte on a solid surface through an enzyme-linked reagent.

The target in a further assay is T2, human albumin (Cealb) (human, UniProt P02768 25-609).
T2 construct: mature
Described as above. The protocol: as §1

Assay [2] deals with T3, rapid acting human insulin analogue (NovoRapid Flexpen) (human, UniProt P01308 90-110; P01308 25-54).
T3 construct: mature; also called Insulin Aspart; Novo Rapid insulin
The assay is described as above. The method, then: as §1

For the assay “abciximab (ReoPro)”, the target named is B3. Described as above. The protocol:
as §1

In assay [3] the target is T4, advanced glycation end-product modified bovine serum albumin (albumin-AGE) (bovine, UniProt P02769 25-607, glycated (advanced glycation end-products; 1 M glucose-6-phosphate, 37 °C, up to 23 weeks); sites not stated).
T4 construct: Misfolded, cross-β structure containing preparation; also called BSA-AGE; glycated BSA
T4 sequence (P02769 25-607 limits assumed): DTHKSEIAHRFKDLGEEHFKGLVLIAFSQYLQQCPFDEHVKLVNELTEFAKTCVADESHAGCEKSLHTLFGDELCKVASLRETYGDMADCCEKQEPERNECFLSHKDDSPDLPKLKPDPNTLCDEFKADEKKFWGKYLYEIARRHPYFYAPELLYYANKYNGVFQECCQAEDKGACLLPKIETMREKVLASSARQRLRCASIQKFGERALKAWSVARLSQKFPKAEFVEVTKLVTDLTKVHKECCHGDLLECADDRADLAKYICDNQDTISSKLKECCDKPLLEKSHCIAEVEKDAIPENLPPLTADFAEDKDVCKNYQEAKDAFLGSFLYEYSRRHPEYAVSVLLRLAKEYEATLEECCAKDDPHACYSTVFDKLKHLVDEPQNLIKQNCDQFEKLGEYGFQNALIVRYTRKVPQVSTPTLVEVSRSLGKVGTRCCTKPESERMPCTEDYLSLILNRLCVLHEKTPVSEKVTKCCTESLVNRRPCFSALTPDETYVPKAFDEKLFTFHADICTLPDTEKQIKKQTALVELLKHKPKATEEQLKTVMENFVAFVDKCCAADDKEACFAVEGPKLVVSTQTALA
Kind of assay: SPR (Biacore), immobilized tPA. The protocol: EDC, NHS and ethanolamine hydrochloride were obtained from Biacore. […] The flow rate was 10 μl min.⁻¹, the injection time was 120″. The running buffer during immobilization was 10 mM HEPES pH 7.4, 140 mM NaCl. Buffers were filtrated on a 0.22 μm filter (white GSWP, 47 mm, Millipore) and degassed at room temperature. For subsequent binding experiments, the running buffer was 10 mM HEPES pH 7.4, 140 mM NaCl, 1.5 mM CaCl₂, 10 mM εACA, 0.005% Tween-20. […] After each injection of protein, the chip was regenerated with 0.1 M H₃PO₄ pH 1.0.
Background: SPR reads the build-up and loss of mass on a sensor chip optically.

Assay [4] addresses T5, fibronectin F4-5 domains with carboxy-terminal His6-tag, expressed in S. cerevisiae (Fn F4-5-His6) (human, UniProt P02751 182-276).
T5 construct: range 182-276; also called Fn F4-5 doublet
In words: SPR (Biacore), Fn F4-5 on CM5 chip, concentration of ligand at half maximum binding. The method, then:
(§2) Now, the running buffer was 10 mM HEPES pH 7.4, 140 mM NaCl, 1.5 mM CaCl₂, 10 mM εACA, 0.05% Tween-20. Regeneration buffer was running buffer supplemented with 1 M NaCl.

In assay [5] the target is B1. In words: ELISA, therapeutic coated, tPA concentration series, one-site binding fit. The method, then: as §1
The target in assay [6] is B1. Kind of assay: cell-based or functional assay.
The target of assay [7] is B1. In words: ELISA, tPA coated, β2GPI concentration series, antibody 2B2. The method, then:
(§3) Binding of β₂GPI was assessed with monoclonal antibody 2B2¹³.
(§4) C. […] D. Western blot incubated with anti-human factor XII antibody. […] Eluted fractions are analyzed on Western blot after SDS-PA electrophoresis. […] The molecular mass of factor XII is 80 kDa. […] Anti-β₂GPI auto-antibodies were purified from plasma of patients with the auto-immune disease Anti-phospholipid syndrome. […] Signals are corrected for background fluorescence of CL, DXS, ThT and buffer.

The target in assay [8] is B1. Kind of assay: ELISA, tPA immobilized, β2GPI concentration series. The protocol: as §3, §4
In assay [9] the target is T6, factor XII purified from human plasma (human, UniProt P00748 20-615).
T6 construct: mature; also called FXII
T6 sequence (looked up): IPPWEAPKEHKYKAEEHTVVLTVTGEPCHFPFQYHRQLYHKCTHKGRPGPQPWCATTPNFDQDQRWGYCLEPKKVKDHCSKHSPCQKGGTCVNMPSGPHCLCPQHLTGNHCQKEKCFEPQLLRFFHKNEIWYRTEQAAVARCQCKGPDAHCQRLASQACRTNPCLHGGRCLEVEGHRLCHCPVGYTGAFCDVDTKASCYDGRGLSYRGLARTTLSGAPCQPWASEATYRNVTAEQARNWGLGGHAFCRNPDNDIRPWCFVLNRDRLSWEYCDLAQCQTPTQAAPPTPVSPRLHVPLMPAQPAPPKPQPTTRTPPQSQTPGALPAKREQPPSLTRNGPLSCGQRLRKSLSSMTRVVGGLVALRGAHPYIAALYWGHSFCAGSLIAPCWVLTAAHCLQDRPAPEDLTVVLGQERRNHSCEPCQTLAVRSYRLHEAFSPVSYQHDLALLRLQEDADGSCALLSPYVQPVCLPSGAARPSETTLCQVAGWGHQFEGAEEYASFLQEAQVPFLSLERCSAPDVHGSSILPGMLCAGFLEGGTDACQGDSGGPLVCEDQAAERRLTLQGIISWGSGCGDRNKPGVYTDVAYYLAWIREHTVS
In words: ELISA, factor XII coated, β2GPI concentration series, antibody 2B2. The method, then:
as §3, §4

Assay [10] addresses T6, factor XII purified from human plasma. Kind of assay: ELISA, factor XII immobilized, β2GPI concentration series. The method, then: as §3, §4
Assay [11] deals with B2. In words: SPR (Biacore), HGFA F immobilized on CM5 chip. The protocol: as §2
For assay [12], the target named is B4. In words: SPR (Biacore), HGFA F immobilized on CM5 chip. The protocol: as §2
In assay [13] the target is B2. In words: SPR (Biacore), tPA F immobilized on CM5 chip. The protocol:
as §2

The target in assay [14] is B4. In words: SPR (Biacore), tPA F immobilized on CM5 chip. The method, then: as §2

As usually defined, the EC50 is the concentration at which the effect is half-maximal. Low values mean higher potency in that assay, high ones lower potency in that assay. Usually Kd stands for the concentration at which binding is half-saturated.

Ends that are not written are not given here.

T5 sequence (P02751 other isoform, or with tags, fused parts or gaps limits assumed): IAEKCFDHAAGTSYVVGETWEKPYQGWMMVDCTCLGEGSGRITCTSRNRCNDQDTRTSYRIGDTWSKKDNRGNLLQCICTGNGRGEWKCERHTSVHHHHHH

Consider B1, for which the “Bmax (OD450 nm)” value turned out to be 0.756 OD450 nm in [1], 1.23 OD450 nm with human albumin (Cealb), 3.62 OD450 nm in assay [2] and 0.533 OD450 nm with abciximab (ReoPro). Also, the binding result in [3] is reported as “binds”.

With B2, the EC50 in assay [4] is 800 nM.

On to B3, for which binding in assay [5] was characterised by a dissociation constant (Kd) of 216 nM. The “tPA activation, Max. Activation (%)” value in [6] is 0%.

In the case of B4, the dissociation constant Kd in [7] was determined as 51 nM; in assay [8] it was 2.3 µg/mL; in [9], 20 nM; in assay [10], 0.9 µg/mL. Further, the 50% effective concentration (EC50) in assay [4] came out at 165 nM.

B5: chemically synthesized F domain of hepatocyte growth factor activator (HGFA F) (other)
chain: EKCFDETRYEYLEGGDRWARVRQGHVEQCECFGGRTWCEGTK
modifications: added carboxy-terminal lysine residue is acetylated
notes: domain: F domain; Made by native chemical ligation of two peptides; also called HGFA F domain
As to B5, the figures for the binding result (with endostatin (EntreMed) [11]; in assay [12]) were “no binding (tested: 0-800 nM)” and “no binding (tested: 0-300 nM)”, respectively.

B6: chemically synthesized F domain of tPA (tPA F) (other, human)
chain: VICRDEKTQMIYQQHQSWLRPVLRSNRVEYCWCNSGRAQCHSVK
modifications: cysteine pairing not given here; also: added C-terminal Lys acetylated or biotinylated
notes: domain: F domain; Immobilized on the second Biacore chip; also called tPA F domain
Take B6: the binding result in the assay with endostatin (EntreMed) [13] is on record as “no binding (tested: 0-800 nM)”; in [14], “no binding (tested: 0-300 nM)”.

The values are drawn from patent publication US20080207488A1 (published 2008).
